The text below walks through data of the nanobody polyreactivity screen of Harvey et al. (2022).

The series is described as follows: yeast display, Sf9 membrane polyspecificity reagent, FACS + sequencing; frameworks hold sequencing errors. The method in brief:
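Synthetic nanobody libraries on Saccharomyces cerevisiae BJ5465 were galactose-induced for 36–48 hours, stained 1 hour at 4 °C with 10% biotinylated, detergent-solubilized Sf9 membrane reagent and enriched on streptavidin microbeads. FACS then separated cells into low and high (top ~1%) gates by anti-HA (expression) and streptavidin (reagent binding) fluorescence. Genes were colony-PCR amplified, MiSeq 2 × 250 sequenced and CDR-length filtered. A clone's polyreactivity label is that of its gate of origin.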
Take “QVQLVESGGGLVQAGGSLRLSCAASGITFPRYVMGWYRQAPGKEREFVAAINYSGGRTYYADSVKGRFTISRDNAKNTVYLQMNSLKPEDTAVYYCAVDLHVWPFWYDYWGQGTQVTVSS”: the “polyreactivity (PSR sort gate)” value was “high polyreactivity”.

Consider “QVQLVESRGGLVQAGGSLRLSCAASGFTFYLNALGWYRPAPGKERELVAAISYSDGSTYYADSVKGRFTISRDNAKNTVYLQMNSLKPEDTAVYYCAADTTDPGGAYQLMDYCGQGTQVTVSS”, for which the “polyreactivity (PSR sort gate)” value is recorded as “high polyreactivity”.

“QVQLQESGGGLVQAGGSLRMSCAASGSISSRDAMGLYRQAPGKEREFVATIASGTTTYYADSVKGSFTISRDNAENTVYLQTNSLKPEDTAVYYCAAPTIQIYPFYYWGQGTQVTVSS”: the “polyreactivity (PSR sort gate)” value is listed as “high polyreactivity”.

With “QVQLVESGGGLVQAGGSLRLSCAASGSTFSKNAMGWYRPAPGKERELVAAIRSRGGSTYYADSVKGRFTISRDNAKNTVYLQMNSLKPEDTAVYYCAAQYFWYVYSYDYWGQGTQVTVSS”, the “polyreactivity (PSR sort gate)” value is recorded as “high polyreactivity”.

On to “QVQLVESGGCLVQAGGSLRLSCAASGSTFVYNTMGWYRQAPGKERELVASISSDGNTYYADSVKGRFTISRDNAKNTVYLQMNSLKPEDTAVYYCAARYYYDWRFVGYDYWGQGTQVTVSS”, for which the “polyreactivity (PSR sort gate)” value is given as “low polyreactivity”.

“QVQLVESGGGLVQAGGSLRLSCAASGYIFNYYAMGWYRQAPGKERELVAAITSGDSTYADSVKGRFTISRDNAKNTVYLQMNSLKPEDTAVYYCAAEISILPFVTPDTIYGYWGQGTQVTVSS”: the “polyreactivity (PSR sort gate)” value is listed as “low polyreactivity”.

Regarding “QVQLVESGGGLVQAGGSLRLSCAASGRIFYFNARGWYRQAPGKERELVAAITSGGSTYYADSVKGRFTISRDNAKNTVYLQMNSLKPEDTAVYYCATDWPHWRYVYWFDYWGQGTQVTVSS”, the “polyreactivity (PSR sort gate)” value is reported as “low polyreactivity”.

As to “QVQLVESGGGVVQAGGSLRVSCAASGRIFAPYAMGWYRQAPGKERELVAAISWRGSSTYYADSVKGRFTISRDNAKNTVSLQMNSLKPEDTAVYYCAAPSSKYWGQGTQVTVSS”, the “polyreactivity (PSR sort gate)” value is reported as “low polyreactivity”.

With “QVQLVESGGGLVQAGGSLRLSCAASGLIFARNAMGWYRQAPGKERELVAAITRRGTSTYYADSVKGRFTISRDNAKNTVYLQMNSLKPEDTAVYYCAARGGGGQRYDYWGQGTQVTVSS”, the “polyreactivity (PSR sort gate)” value is given as “high polyreactivity”.

As for “QVQLVESAGGLVQAGGSLRLSCAASGSTLSWNTMGWYRQAPGKERELVARINWGGSSTYYADSVKGRFTISRDNAKNTVYLQMNSLKPEDTAVFYCNARYLSSAYDYWGQGTQVTVSS”, the “polyreactivity (PSR sort gate)” value was “high polyreactivity”.

Turning to “HVQLVESGGGLVQAGGSLPLSCAASGLTFYYNAMGWYRQAPGNERELVAAISFSGGRTYYADSVKGRFTISRDNAKNTVYLQMNSLKPEDTAVYYCNTVGKQHLDYDYWGQGTQVTVSS”, the “polyreactivity (PSR sort gate)” value is given as “high polyreactivity”.

For “QVQLVESGGGLVQAGGSLRLSCAASGSTFGVYGMGWYRQAPGKERELVASITSDGNTNYADSVKGRFTISRDNAKNTVYLQMNSLKPEDTAVYYCNTVGIQALYDYWGQGTQVTVSS”, the “polyreactivity (PSR sort gate)” value was “low polyreactivity”.

As for “QVQLEESGGGLVQAGGSLRLSCAASGRIFLTYAMGWYRQAPGKERELVAAIRSRSGTTYYADSVKGRFTISRDNAKNTVYLQMNSLKPEDTAVYYCAAGGKSRSYYWGQGTQVTVSS”, the “polyreactivity (PSR sort gate)” value is “high polyreactivity”.

With “QVQLVESGGGIVQAGGSLRISSAASGSIFGYYAMGWYIQEPGKERELVADITVRGGSTYYADSVKGRFTISRDNAKNTVYLQMNSLKPEDTAVYYCAAAQYTFWDGDSWGQGTQVTVSS”, the “polyreactivity (PSR sort gate)” value was “high polyreactivity”.

As for “QVQLVESGGGLVQAGGSLRLSCAASGRIFTVNAMGGYRQAPGKERELVAAITFSGANTYYADSVKGRFTISRDNAKNTVFLQMNSLKPEDTAVYYCAGDPPNGAEYYWGQGTQVTVSS”, the “polyreactivity (PSR sort gate)” value is recorded as “high polyreactivity”.

As to “QVHLVESGGGLVQAGGSLRLSCAASGSTFYANAMGWYRQAPGTERELVAAITSGGSTNYADSVKGRFTISRDNAKNTFYLQMNSLKPEDTAVYYCAADGGDQERGDYWGQGTQVTVSS”, the “polyreactivity (PSR sort gate)” value is recorded as “low polyreactivity”.

For the sequence “QDHLVESGGGLVQAGGSLRLSCAASGRIFSYYVMGWYRQAPGKERELVAAITSGCSTNYADSVKGRFTISRDNAKNNVYLQMNSLKPEDTAVYYFNRAYTYINRLYGYWGQGTQVTVSS”, the “polyreactivity (PSR sort gate)” value was “high polyreactivity”.

For the sequence “QVQLVESGGGLVQAGGSLRLSCAASGSTYRYTMGWYRPAPGKERELVAAITGSAGSTYYADSVKGRFTISRDNAKNTVYLQMHSLKPEDTAVYYCNKVRPRKFWDYYYWGQGTQVTVSS”, the “polyreactivity (PSR sort gate)” value was “high polyreactivity”.

As to “QVQLVESGGGLVQAGGRLRLSCAASGSTFGENVMGWYRQAPGKERELVAAISRGGSTYYADSVKGRFTISRDNAKNTVYLQMNSLKPEDTAVYYCAARTRSGPRYNYNYWGQGTQVTVSS”, the “polyreactivity (PSR sort gate)” value is on record as “high polyreactivity”.

With “QVQLEESGGGLVQAGGSLRLSCAASGIIIVRNAMGWYRQAPGKEREFVAAISSSGGSTYYADSVKGRFTISRDNGKNTVYLQMNSLNPEDTAVYNCNARHRQWARGYWGQGTQVTVSS”, the “polyreactivity (PSR sort gate)” value is listed as “high polyreactivity”.

On to “QVQLVESGGGLVQAGGILRLSCAASGLSFSWYDMGWYRQAPGKERELVAAITTDGDDTYYADSVKGRFTISRDNAKNTVYLQMNSLKPEDTAVYYCAADSELAIRYPDRDYDSWGQGTQVTVSS”, for which the “polyreactivity (PSR sort gate)” value is “low polyreactivity”.

For “QDQLVESGGGLVQAGCSLRLSCAASGLIFNYKVMGWYRHAPGKERELVAAISRGGSTYYADSVKGRFTFSRDNAKNTVYLQMNSLKPEDTAVYYCAARYRSRYDYWGQGTQVTVSS”, the “polyreactivity (PSR sort gate)” value is on record as “high polyreactivity”.

Take “QVQLVESGGGLVQAGGSLLLICAASGRTFPYNAMGWYRQAPGKEREFVAAISVGGGSTYADSVKGRFTISRDNAKNTVYLQMNSLKPEDTAVYYCAAAYTKLYYYWGQGTQVTVSS”: the “polyreactivity (PSR sort gate)” value was “low polyreactivity”.

For “QVQLVESGGGLVQAGGSLRLSCAASGSILTVYAMGWYRQAPGKERELVAAITSSGGITYYADSVKGRFTISRDNAKNTVYLQMHSLKPEDTAVYYCAAYGYGSNYRYTGYYYWGQGTQVTVSS”, the “polyreactivity (PSR sort gate)” value is listed as “low polyreactivity”.

With “QVQLVESGGGLVQAGGSLRLSCAASGRIFWANAMGWYRQATGKERELVAAITGSGRTYYADSVKGRFTISRDNAKNTVYLQMISLKREDTAVYYCAAVTYYELAQGYGYWGQGTQVTVSS”, the “polyreactivity (PSR sort gate)” value is reported as “high polyreactivity”.

“QVQLVESGGGLVQAGGSLRLSCAASGSILGSYAMGWYRQAPGKERELVAAINYSGGSTYYADSVKGRFTISRDNAKNTVYLQMNSLKPEETAVYYCAAVATAGYSNYKLDYWGQGTQVTVSS”: the “polyreactivity (PSR sort gate)” value was “low polyreactivity”.

Regarding “QVQLVESGGGLVQAGGSLRLSCAASGFTITHYAMGWYRQAPGKERELVAAISTSGGSTYYADSVKGRFTISRDNAKNTVYLQMNSLKPEDTAVYYCAARRDGWVQWGYYYWGQGTQVTVSS”, the “polyreactivity (PSR sort gate)” value was “low polyreactivity”.

For the sequence “QVQLVESGGGLVQAGGSLRLICAASGYTFPRYTMGWYRQAPGKERELVAAITSSGSTNYADSVKGRFTISRDNAKNTVYLQMNCLKPEDTAVYYCATLYRDWWSGYLEVDYWGQGTQVTVSS”, the “polyreactivity (PSR sort gate)” value is on record as “high polyreactivity”.

Turning to “QVQLVESGGGLVQAGGSLRLSCAASGIIFGFYAMGWYRQAPGKERELVAAITIDGSTYYADSVKGRFTISRDNAKTTVYLQMNILKPEDTAVYYCGAQYLNVYYWEDYLGQGTQVTVSS”, the “polyreactivity (PSR sort gate)” value is “low polyreactivity”.

Take “QVQLHESGGGLVQPGGGLRLSCAPSGSISSTGFMGWNRKAPGKEREPVAAIAPGTTTYYADSVKGRFTISRDNAKNTVYLQMNSLRPEDTAVYYCAVFTDNRVAFLYWGQGTQVTVSS”: the “polyreactivity (PSR sort gate)” value was “low polyreactivity”.

Consider “QVQLVESGGGLVQAGGSLRLSCAASGSTFQPYAMGWYRQAPGKERELVAAISWSGVSTSYADSVKGRFTISRDNAKNTVYLQMNSLKPEETAVYYPFYEYYYWVQGTQVTVSS”, for which the “polyreactivity (PSR sort gate)” value is given as “low polyreactivity”.

Take “QVQLQESGGGLVQAGGSLSLSCAASGSISAVGAMGWYRKAPGKERELAASVNWCTNTNYADSVKGRFTISRDNAKNTLYLQMNSLKPEDTAVYYCAVLPDWETRHDYWGHGTQVTVSS”: the “polyreactivity (PSR sort gate)” value was “low polyreactivity”.

With “QVQLVESGGGLVQAGGSLRLSCASSGRTYTLNAMGWYRQAPGKERELVAAIRRGGSTYYADSVKGRFTISRDNAKNTVYLQMNSLKPEDTAVYYCAARGTGYHGYGYWGQGTQVTVSS”, the “polyreactivity (PSR sort gate)” value is “high polyreactivity”.

As to “QVQLVESGGGLVQAGGSLRLSCAASGRTLRPYAMGWYRQAPGKEREFVAAIRWSGGSTYYADSVKGRFTISRDNAKNTVYLQMNSLKPEDTAVYYCAASFLTYYLSLYDYWGQGTQVTVSS”, the “polyreactivity (PSR sort gate)” value is given as “high polyreactivity”.

Take “QVQLVESGGGLVQAGGSLRLSCAASGYIFQVNAMGWYRQAPGKERELVASISCGGSTNYADSVKGRFTISRDNAKNTVYLQMNSLKPEDTAVYYCAAELGYPYLQYVYWSQYLYDYWGQGTQVTVSS”: the “polyreactivity (PSR sort gate)” value is listed as “low polyreactivity”.

Take “QVQLVESGGGLVQAGGSLRLSSAASGFIFGSNAMGWYRQAPGKERELVAAISRSGGSTYYADSVKGRFTISRDNAKNTVYLQMNSLKPEDTAVYYCASYLYKSRYLPEYDYWGQGTQVTVSS”: the “polyreactivity (PSR sort gate)” value is on record as “high polyreactivity”.

As to “QVQLVESGGGLVQAGGSLRLSCAASGRTFGWYAMGWYRQAPGKEREFVAVISRSGTNTYYADSVKGRFTISRDNAKNTVYLQMNSLKPEDTAVYYCAAVRSSQSYYYWGQGTQVTVSS”, the “polyreactivity (PSR sort gate)” value is recorded as “high polyreactivity”.

Consider “QVQLVESGVGLVQAGGSLRLSCAASGITFTGYAMGWYRQAPGKERELVAVISETGGSTYADSVKGRFTISRDNAKNTVYLQMNSLKPEDTAVYYCATRLWWPYSTAWAKMDYWGQGTQVTVSS”, for which the “polyreactivity (PSR sort gate)” value is listed as “low polyreactivity”.

With “QVQLVESGGGLVQAGGSLRLSCAASGRIFGWYAMGWYRQAPGKERELVAAIRWSGGSTYADSVKGRFTISRDNAKNTVYLQMNSLKPEDTAVYYCAATYGSYRGVRYYWGQGTQVTVSS”, the “polyreactivity (PSR sort gate)” value is “high polyreactivity”.

Take “QVQIVESGGGLVQAGGSLRLSCAASGGTFWANAMGWYRQAPGKERELVAAITSGGSTYADSVKGRFTISRDNAKNTVYLQMNSLKPDDTAVYYCNARRYRYRPYLSGYNYWGQGTQVTVSS”: the “polyreactivity (PSR sort gate)” value was “high polyreactivity”.

On to “QVQLEESGGGLVQAGGSLRLSCAASGNIFESYGMGWYRQAPGKERELVATINTSSGSTYYADSVKGRFTISRDNAKNTVYLQMNSLKPEDTAVYYCAAEWYPYPWGYGYWGQGTQVTVSS”, for which the “polyreactivity (PSR sort gate)” value is given as “low polyreactivity”.
